In paper PMC10772735, “Characterization of erythroferrone oligomerization and its impact on BMP antagonism” (The Journal of Biological Chemistry, 2023):
Several values for one entry are separate records, joined by “and”; a condition that tells them apart may be missing. Equal values may be shown once. Read-outs that look alike come from different tables or passages of the source. One block for each molecule: values may come before it.

What was measured:
BMP6 [1] = molecular target: BMP6 (UniProt P22004); test: SPR competition (BMP6 + ERFE over Alk3-Fc captured on protein A chip); conditions: curve maximum near the ~300 s dotted line, RU is residual BMP6 binding to Alk3-Fc (lower RU = more competition by ERFE) …, read off a plot
[2] = molecular target: Alk3-Fc ECD (Homo sapiens) (UniProt P36894); conditions: cited from earlier work
BMP6, P22004 = molecular target: T1, BMP6, P22004; test: SPR competition (BMP6 + ERFE over Alk3-Fc captured on protein A chip); conditions: chain shown with the change, curve maximum near the ~300 s dotted line, read off a plot
T1 chain: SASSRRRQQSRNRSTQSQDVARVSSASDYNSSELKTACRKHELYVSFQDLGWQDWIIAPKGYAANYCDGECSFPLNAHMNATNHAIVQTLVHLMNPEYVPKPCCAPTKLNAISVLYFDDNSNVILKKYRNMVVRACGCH

BMP6 [3] = molecular target: T2, BMP6 (UniProt P22004 375-513); test: cell-based or functional assay
T2 sequence (looked up): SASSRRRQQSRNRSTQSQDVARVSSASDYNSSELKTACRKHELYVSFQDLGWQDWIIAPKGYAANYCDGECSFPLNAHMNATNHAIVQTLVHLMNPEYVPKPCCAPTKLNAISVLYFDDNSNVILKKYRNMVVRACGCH

[4] = molecular target: the molecule itself; test: AUC; sedimentation velocity, full-length ERFE constructs, 0.5 mg/ml, 20,000 rpm, 20 °C, absorbance at 230 nm, freshly purified never frozen protein after dialysis (20 mM Hepes pH 7.5, 150 mM NaCl, 5 mM CaCl2); oligomeric states assigned qualitatively from approximate masses
[5] = molecular target: the molecule itself; test: non-reducing SDS-PAGE; purified ERFE analysed by SDS-PAGE under reducing and nonreducing conditions; shows only disulfide-linked species
BMP7 = molecular target: T3, BMP7 (UniProt P18075 293-431); test: cell-based or functional assay
T3 sequence (looked up): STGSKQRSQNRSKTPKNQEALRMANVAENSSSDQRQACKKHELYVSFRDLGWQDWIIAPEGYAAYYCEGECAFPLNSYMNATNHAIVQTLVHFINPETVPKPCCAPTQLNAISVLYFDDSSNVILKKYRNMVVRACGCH

GDF5 = molecular target: T4, GDF5 (UniProt P43026 382-501); test: cell-based or functional assay
T4 sequence (looked up): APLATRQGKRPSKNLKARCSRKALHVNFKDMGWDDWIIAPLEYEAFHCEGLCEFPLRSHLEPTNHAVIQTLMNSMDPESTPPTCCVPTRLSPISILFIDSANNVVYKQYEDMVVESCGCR

BMP6 [6] = molecular target: T2, BMP6; test: cell-based or functional assay; remark: listed apart in the source
BMP2 = BMP2 (UniProt P12643 283-396); test: cell-based or functional assay
BMP6 [7] = molecular target: T2, BMP6; test: cell-based or functional assay; remark: listed apart in the source
[8] = molecular target: the molecule itself; test: AUC; sedimentation velocity, ΔC1Q ERFE mutants, 0.5 mg/ml, 40,000 RPM, 20 °C, absorbance at 230 nm, never frozen protein after dialysis; oligomeric states assigned qualitatively from approximate masses

Chain of Alk3-Fc ECD (Homo sapiens) (P36894 24-152): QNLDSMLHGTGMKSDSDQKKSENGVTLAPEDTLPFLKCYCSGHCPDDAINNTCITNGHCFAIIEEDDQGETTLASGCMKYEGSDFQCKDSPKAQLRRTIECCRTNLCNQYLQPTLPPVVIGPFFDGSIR
Chain of BMP2 (P12643 283-396): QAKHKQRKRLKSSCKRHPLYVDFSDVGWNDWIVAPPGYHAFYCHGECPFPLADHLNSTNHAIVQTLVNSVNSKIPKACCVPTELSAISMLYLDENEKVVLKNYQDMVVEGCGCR

Molecule: BMP6 (from UniProt P22004)
- Kd [2]: 62.5 nM

B2: Cys∗ ERFE (natural protein, human, UniProt Q4G0M1 44-354, looked up)
chain: PPPGNELPRGPGESRAGPAARPPEPTAERAHSVDPRDAWMLFVRQSDKGVNGKKRSRGKAKKLKFGLPGPPGPPGPQGPPGPIIPPEALLKEFQLLLKGAVRQRERAEPEPSTSGPAGPVAASLAPVSATAGEDDDDVVGDVLALLAAPLAPGPRAPRVEAAFLSRLRRDALVERRALHELGVYYLPDAEGAFRRGPGLNLTSGQYRAPVAGFYALAATLHVALGEPPRRGPPRPRDHLRLLICIQSRCQRNASLEAIMGLESSSELFTISVNGVLYLQMGQWTSVFLDNASGCSLTVRSGSHFSAVLLGV
notes: erythroferrone (ERFE), human, residues 44-354, Cys155, 157 and 208 mutated to serines; source: some mutants αFlag resin first; not shown: FLAG, N-terminal, kept
- IC50 of inhibition of 2.5 nM BMP6 signalling, luciferase reporter, BRITER cells (BMP6 [3]): 8.7 nM
- stoichiometry N [4]: 3

B3: N-terminally flag-tagged hERFE (residues 44–354), WT erythroferrone (natural protein, human, UniProt Q4G0M1 44-354, looked up)
chain: PPPGNELPRGPGESRAGPAARPPEPTAERAHSVDPRDAWMLFVRQSDKGVNGKKRSRGKAKKLKFGLPGPPGPPGPQGPPGPIIPPEALLKEFQLLLKGAVRQRERAEPEPCTCGPAGPVAASLAPVSATAGEDDDDVVGDVLALLAAPLAPGPRAPRVEAAFLCRLRRDALVERRALHELGVYYLPDAEGAFRRGPGLNLTSGQYRAPVAGFYALAATLHVALGEPPRRGPPRPRDHLRLLICIQSRCQRNASLEAIMGLESSSELFTISVNGVLYLQMGQWTSVFLDNASGCSLTVRSGSHFSAVLLGV
notes: erythroferrone (ERFE, FAM132B), human, residues 44-354; By AUC a mixture of trimer, hexamer and a little high molecular weight species; also called WT ERFE; N-Flag ERFE; not shown: FLAG, N-terminal, kept
- stoichiometry N [5]: 2
- IC50 of ERFE inhibition of BMP7 (2.5 nM) signalling, BMP responsive luciferase assay (BRE promoter) (BMP7): 8.9 nM
- IC50 of ERFE inhibition of GDF5 (2.5 nM) signalling, BMP responsive luciferase assay (BRE promoter) (GDF5): 130 nM
- IC50 of ERFE inhibition of BMP6 (2.5 nM) signalling, BMP responsive luciferase assay (BRE promoter) (BMP6 [6]): 5.2 nM
- IC50 of ERFE inhibition of BMP2 (2.5 nM) signalling, BMP responsive luciferase assay (BRE promoter) (BMP2): 170 nM
- stoichiometry N [4]: 3 and 6

B4: N94A ERFE (natural protein, human, UniProt Q4G0M1 44-354, looked up)
chain: PPPGNELPRGPGESRAGPAARPPEPTAERAHSVDPRDAWMLFVRQSDKGVAGKKRSRGKAKKLKFGLPGPPGPPGPQGPPGPIIPPEALLKEFQLLLKGAVRQRERAEPEPCTCGPAGPVAASLAPVSATAGEDDDDVVGDVLALLAAPLAPGPRAPRVEAAFLCRLRRDALVERRALHELGVYYLPDAEGAFRRGPGLNLTSGQYRAPVAGFYALAATLHVALGEPPRRGPPRPRDHLRLLICIQSRCQRNASLEAIMGLESSSELFTISVNGVLYLQMGQWTSVFLDNASGCSLTVRSGSHFSAVLLGV
- IC50 of inhibition of 2.5 nM BMP6 signalling, luciferase reporter, BRITER cells (BMP6 [7]): 21 nM

B5: D90A ERFE (natural protein, human, UniProt Q4G0M1 44-354, looked up)
chain: PPPGNELPRGPGESRAGPAARPPEPTAERAHSVDPRDAWMLFVRQSAKGVNGKKRSRGKAKKLKFGLPGPPGPPGPQGPPGPIIPPEALLKEFQLLLKGAVRQRERAEPEPCTCGPAGPVAASLAPVSATAGEDDDDVVGDVLALLAAPLAPGPRAPRVEAAFLCRLRRDALVERRALHELGVYYLPDAEGAFRRGPGLNLTSGQYRAPVAGFYALAATLHVALGEPPRRGPPRPRDHLRLLICIQSRCQRNASLEAIMGLESSSELFTISVNGVLYLQMGQWTSVFLDNASGCSLTVRSGSHFSAVLLGV
- IC50 of inhibition of 2.5 nM BMP6 signalling, luciferase reporter, BRITER cells (BMP6 [7]): 13 nM

B8: CLR∗Cys∗ΔC1Q ERFE (domain or fragment)
chain: PPPGNELPRGPGESRAGPAARPPEPTAERAHSVDPRDAWMLFVRQSDKGVNGKKRSRGKAKKLKFGLPGPPGPSSSQGPPGPIIPPEALLKEFQLLLKGAVRQRERAEPEPSTSGPAGPVAASLAPVSATAGEDDDDVVGDVLALLAAPLAPGPRAPRVEAAFL
- IC50 of inhibition of 2.5 nM BMP6 signalling, luciferase reporter, BRITER cells (BMP6 [3]): 290 nM

B9: CLR∗ΔC1Q ERFE (domain or fragment)
chain: PPPGNELPRGPGESRAGPAARPPEPTAERAHSVDPRDAWMLFVRQSDKGVNGKKRSRGKAKKLKFGLPGPPGPSSSQGPPGPIIPPEALLKEFQLLLKGAVRQRERAEPEPCTCGPAGPVAASLAPVSATAGEDDDDVVGDVLALLAAPLAPGPRAPRVEAAFL
- IC50 of inhibition of 2.5 nM BMP6 signalling, luciferase reporter, BRITER cells (BMP6 [3]): 27 nM
- stoichiometry N [8]: 2

Now from value to molecule, other results behind:

- response (BMP6 [1]; 10 nM BMP6 + 80 nM CLR*Cys*ΔC1Q ERFE): 19 RU
- response (BMP6 [1]; 10 nM BMP6 + 160 nM CLR*Cys*ΔC1Q ERFE): 17 RU
Molecule: ΔC1Q ERFE (from UniProt Q4G0M1) CLR* (center PGP in the CLR to SSS); C155S; C157S

- response (BMP6, P22004; 10 nM BMP6 + 5 nM CLR*Cys* ERFE, RU is residual BMP6 binding to Alk3-Fc (lower RU = more competition by ERFE), BMP6 …): 11 RU
- response (BMP6, P22004; 10 nM BMP6 + 10 nM CLR*Cys* ERFE, RU is residual BMP6 binding to Alk3-Fc (lower RU = more competition by ERFE), BMP6 …): 8.7 RU
- response (BMP6, P22004; 10 nM BMP6 + 20 nM CLR*Cys* ERFE, RU is residual BMP6 binding to Alk3-Fc (lower RU = more competition by ERFE), BMP6 …): 6.2 RU
- response (BMP6, P22004; 10 nM BMP6 + 40 nM CLR*Cys* ERFE, RU is residual BMP6 binding to Alk3-Fc (lower RU = more competition by ERFE), BMP6 …): 4 RU
- response (BMP6, P22004; 10 nM BMP6 + 80 nM CLR*Cys* ERFE, RU is residual BMP6 binding to Alk3-Fc (lower RU = more competition by ERFE), BMP6 …): 2.3 RU
- response (BMP6, P22004; 10 nM BMP6 + 160 nM CLR*Cys* ERFE, RU is residual BMP6 binding to Alk3-Fc (lower RU = more competition by ERFE) …): 1.2 RU
B1: N-terminally flag-tagged hERFE (residues 44–354), WT erythroferrone, Q4G0M1 CLR* (center PGP in the CLR to SSS); C155S; C157S; C208S (protein)
chain: PPPGNELPRGPGESRAGPAARPPEPTAERAHSVDPRDAWMLFVRQSDKGVNGKKRSRGKAKKLKFGLPGPPGPSSSQGPPGPIIPPEALLKEFQLLLKGAVRQRERAEPEPSTSGPAGPVAASLAPVSATAGEDDDDVVGDVLALLAAPLAPGPRAPRVEAAFLSRLRRDALVERRALHELGVYYLPDAEGAFRRGPGLNLTSGQYRAPVAGFYALAATLHVALGEPPRRGPPRPRDHLRLLICIQSRCQRNASLEAIMGLESSSELFTISVNGVLYLQMGQWTSVFLDNASGCSLTVRSGSHFSAVLLGV

- IC50 of inhibition of 2.5 nM BMP6 signalling, luciferase reporter, BRITER cells (BMP6 [3]): 97 nM
B6: Cys∗ΔC1Q ERFE (domain or fragment, human, UniProt Q4G0M1 44-207, looked up)
chain: PPPGNELPRGPGESRAGPAARPPEPTAERAHSVDPRDAWMLFVRQSDKGVNGKKRSRGKAKKLKFGLPGPPGPPGPQGPPGPIIPPEALLKEFQLLLKGAVRQRERAEPEPSTSGPAGPVAASLAPVSATAGEDDDDVVGDVLALLAAPLAPGPRAPRVEAAFL
notes: erythroferrone (ERFE), human, stop codon at C208, Cys155 and Cys157 mutated to serines (C208 is not in the truncated chain); source: Expi293, transfected, purified; not shown: FLAG, N-terminal, kept
- stoichiometry N [8]: 3

- IC50 of inhibition of 2.5 nM BMP6 signalling, luciferase reporter, BRITER cells (BMP6 [3]): 7.8 nM
B7: ΔC1Q ERFE (domain or fragment, human, UniProt Q4G0M1 44-207, looked up)
chain: PPPGNELPRGPGESRAGPAARPPEPTAERAHSVDPRDAWMLFVRQSDKGVNGKKRSRGKAKKLKFGLPGPPGPPGPQGPPGPIIPPEALLKEFQLLLKGAVRQRERAEPEPCTCGPAGPVAASLAPVSATAGEDDDDVVGDVLALLAAPLAPGPRAPRVEAAFL
notes: erythroferrone (ERFE), human, construct from residue 44 with a stop codon introduced at C208, removing the entire C1Q domain; source: Expi293, transfected, purified; not shown: FLAG, N-terminal, kept
- stoichiometry N [5]: 2
- stoichiometry N [8]: 3
